The supplement of paper PMC10065799, “High-throughput profiling of sequence recognition by tyrosine kinases and SH2 domains using bacterial peptide display” (eLife, 2023)

Legend:
Grb2 SH2 = Grb2 SH2 (UniProt P62993); experiment: SH2 binding enrichment of the phosphorylated peptide, bacterial display (enrichment ratio); higher = better substrate or ligand; peptides without Tyr show the background
c-Src SH2 = experiment: as above
SHP2-C SH2 = experiment: as above
EPHB1 = EPHB1 (UniProt P54762); experiment: phosphorylation enrichment, bacterial display (enrichment ratio); higher = better substrate or ligand; peptides without Tyr show the background
Sequence of EPHB1 (P54762 whole entry, looked up): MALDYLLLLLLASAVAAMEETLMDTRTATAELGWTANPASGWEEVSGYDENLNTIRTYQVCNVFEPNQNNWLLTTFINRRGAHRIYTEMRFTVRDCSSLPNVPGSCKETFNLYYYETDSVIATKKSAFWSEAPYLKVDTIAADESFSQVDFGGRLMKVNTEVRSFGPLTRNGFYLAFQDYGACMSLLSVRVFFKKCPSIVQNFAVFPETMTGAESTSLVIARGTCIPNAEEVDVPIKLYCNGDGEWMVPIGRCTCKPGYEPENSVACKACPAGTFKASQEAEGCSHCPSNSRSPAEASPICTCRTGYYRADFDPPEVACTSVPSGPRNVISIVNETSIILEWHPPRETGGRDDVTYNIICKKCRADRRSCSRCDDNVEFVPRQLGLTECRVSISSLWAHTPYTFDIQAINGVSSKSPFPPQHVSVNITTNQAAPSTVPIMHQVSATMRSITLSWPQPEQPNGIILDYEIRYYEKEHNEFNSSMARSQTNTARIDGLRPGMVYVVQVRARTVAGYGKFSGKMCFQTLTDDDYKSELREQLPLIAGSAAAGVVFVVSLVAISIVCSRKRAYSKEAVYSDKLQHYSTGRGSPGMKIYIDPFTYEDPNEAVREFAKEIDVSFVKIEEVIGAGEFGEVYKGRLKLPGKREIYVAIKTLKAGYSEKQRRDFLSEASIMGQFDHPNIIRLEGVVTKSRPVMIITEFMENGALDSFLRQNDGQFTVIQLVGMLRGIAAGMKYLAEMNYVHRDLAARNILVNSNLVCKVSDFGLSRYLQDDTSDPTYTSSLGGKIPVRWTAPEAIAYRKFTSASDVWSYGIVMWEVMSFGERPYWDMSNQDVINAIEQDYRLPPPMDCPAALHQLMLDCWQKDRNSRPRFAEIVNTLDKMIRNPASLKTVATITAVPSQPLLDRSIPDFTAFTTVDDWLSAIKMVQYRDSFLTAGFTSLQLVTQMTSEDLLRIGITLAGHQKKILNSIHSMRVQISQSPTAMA

c-Abl (mouse) = experiment: as above
FGFR1 = FGFR1 (UniProt P11362); experiment: as above
Sequence of FGFR1 (P11362 whole entry, looked up): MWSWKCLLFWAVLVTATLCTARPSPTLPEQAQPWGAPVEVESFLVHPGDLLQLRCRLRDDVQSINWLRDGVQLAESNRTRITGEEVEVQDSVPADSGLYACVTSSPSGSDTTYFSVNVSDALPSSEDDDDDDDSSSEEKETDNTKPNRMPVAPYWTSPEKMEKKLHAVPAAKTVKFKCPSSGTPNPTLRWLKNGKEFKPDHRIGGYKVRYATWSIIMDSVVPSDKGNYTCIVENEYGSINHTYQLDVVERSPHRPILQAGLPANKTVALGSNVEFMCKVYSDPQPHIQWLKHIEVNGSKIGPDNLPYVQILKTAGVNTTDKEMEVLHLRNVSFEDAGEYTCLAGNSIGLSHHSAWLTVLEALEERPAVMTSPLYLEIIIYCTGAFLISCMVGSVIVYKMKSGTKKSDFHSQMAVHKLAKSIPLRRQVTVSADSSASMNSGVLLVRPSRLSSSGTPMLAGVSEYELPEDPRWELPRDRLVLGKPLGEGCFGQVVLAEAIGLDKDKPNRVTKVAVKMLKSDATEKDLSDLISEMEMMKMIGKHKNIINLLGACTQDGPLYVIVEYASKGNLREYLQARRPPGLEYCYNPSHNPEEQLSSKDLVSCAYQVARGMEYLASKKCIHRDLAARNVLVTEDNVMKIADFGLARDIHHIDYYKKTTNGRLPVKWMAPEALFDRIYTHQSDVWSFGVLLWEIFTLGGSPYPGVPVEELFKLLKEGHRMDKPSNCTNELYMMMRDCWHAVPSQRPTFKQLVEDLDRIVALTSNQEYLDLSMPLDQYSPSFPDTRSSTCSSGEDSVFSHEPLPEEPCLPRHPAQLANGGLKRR

Jak2 = Jak2 (UniProt O60674); experiment: as above
Fer (mouse) = experiment: as above
Fyn = Fyn (UniProt P06241); experiment: as above
Sequence of Fyn (P06241 whole entry, looked up): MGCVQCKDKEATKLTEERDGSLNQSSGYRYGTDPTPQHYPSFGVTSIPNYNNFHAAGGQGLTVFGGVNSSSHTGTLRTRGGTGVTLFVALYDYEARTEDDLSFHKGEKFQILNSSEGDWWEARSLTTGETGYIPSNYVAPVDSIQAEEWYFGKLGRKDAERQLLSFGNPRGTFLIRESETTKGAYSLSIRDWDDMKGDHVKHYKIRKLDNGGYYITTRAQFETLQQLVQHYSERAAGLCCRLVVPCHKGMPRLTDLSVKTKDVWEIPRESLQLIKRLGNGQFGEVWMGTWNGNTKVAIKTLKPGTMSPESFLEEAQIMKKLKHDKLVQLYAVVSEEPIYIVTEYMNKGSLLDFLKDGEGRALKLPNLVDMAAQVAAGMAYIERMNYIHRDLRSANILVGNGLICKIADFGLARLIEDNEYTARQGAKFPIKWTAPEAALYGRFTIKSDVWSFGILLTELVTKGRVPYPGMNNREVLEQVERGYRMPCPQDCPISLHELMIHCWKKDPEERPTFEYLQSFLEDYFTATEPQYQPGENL

Hck = Hck (UniProt P08631); experiment: as above
Sequence of Hck (P08631 whole entry, looked up): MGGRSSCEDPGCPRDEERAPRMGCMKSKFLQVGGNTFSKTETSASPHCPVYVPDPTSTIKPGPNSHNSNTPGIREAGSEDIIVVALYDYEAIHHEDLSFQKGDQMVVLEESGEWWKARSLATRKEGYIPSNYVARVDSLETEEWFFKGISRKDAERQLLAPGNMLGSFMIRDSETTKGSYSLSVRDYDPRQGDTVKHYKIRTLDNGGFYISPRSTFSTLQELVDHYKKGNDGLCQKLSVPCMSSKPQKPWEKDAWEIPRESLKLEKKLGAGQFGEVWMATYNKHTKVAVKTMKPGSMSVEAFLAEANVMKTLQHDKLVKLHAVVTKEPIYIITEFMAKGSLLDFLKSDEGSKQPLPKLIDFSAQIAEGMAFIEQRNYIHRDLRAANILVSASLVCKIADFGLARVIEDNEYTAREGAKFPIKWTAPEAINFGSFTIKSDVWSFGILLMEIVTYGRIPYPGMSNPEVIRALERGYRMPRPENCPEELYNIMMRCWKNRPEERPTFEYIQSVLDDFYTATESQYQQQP

EPHB2 = EPHB2 (UniProt P29323); experiment: as above
AncSZ = experiment: as above
c-Src = experiment: as above
FGFR3 = FGFR3 (UniProt P22607); experiment: as above
Sequence of FGFR3 (P22607 whole entry, looked up): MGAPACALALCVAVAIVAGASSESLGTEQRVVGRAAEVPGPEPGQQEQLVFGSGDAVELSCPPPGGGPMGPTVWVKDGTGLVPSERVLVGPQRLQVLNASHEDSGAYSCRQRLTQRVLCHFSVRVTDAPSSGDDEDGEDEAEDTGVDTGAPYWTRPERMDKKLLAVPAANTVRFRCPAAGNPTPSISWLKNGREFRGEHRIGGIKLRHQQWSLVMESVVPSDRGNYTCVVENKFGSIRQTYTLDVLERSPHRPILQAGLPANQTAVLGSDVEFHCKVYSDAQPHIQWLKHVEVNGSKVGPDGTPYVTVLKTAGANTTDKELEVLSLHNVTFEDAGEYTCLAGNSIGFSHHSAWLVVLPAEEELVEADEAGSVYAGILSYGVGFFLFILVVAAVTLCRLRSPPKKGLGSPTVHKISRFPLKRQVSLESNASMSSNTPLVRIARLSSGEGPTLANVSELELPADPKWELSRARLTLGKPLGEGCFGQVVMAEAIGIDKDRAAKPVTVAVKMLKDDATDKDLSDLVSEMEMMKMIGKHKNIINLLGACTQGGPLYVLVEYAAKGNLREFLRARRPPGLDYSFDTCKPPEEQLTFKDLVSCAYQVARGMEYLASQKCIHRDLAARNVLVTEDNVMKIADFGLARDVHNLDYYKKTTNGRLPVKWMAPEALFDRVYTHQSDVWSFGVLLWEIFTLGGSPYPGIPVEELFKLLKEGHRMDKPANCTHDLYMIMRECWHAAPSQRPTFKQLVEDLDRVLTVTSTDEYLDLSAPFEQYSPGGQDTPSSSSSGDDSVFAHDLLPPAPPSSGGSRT

MERTK = MERTK (UniProt Q12866); experiment: as above
Fes = Fes (UniProt P07332); experiment: as above
Sequence of Fes (P07332 whole entry, looked up, the tested form may be a part): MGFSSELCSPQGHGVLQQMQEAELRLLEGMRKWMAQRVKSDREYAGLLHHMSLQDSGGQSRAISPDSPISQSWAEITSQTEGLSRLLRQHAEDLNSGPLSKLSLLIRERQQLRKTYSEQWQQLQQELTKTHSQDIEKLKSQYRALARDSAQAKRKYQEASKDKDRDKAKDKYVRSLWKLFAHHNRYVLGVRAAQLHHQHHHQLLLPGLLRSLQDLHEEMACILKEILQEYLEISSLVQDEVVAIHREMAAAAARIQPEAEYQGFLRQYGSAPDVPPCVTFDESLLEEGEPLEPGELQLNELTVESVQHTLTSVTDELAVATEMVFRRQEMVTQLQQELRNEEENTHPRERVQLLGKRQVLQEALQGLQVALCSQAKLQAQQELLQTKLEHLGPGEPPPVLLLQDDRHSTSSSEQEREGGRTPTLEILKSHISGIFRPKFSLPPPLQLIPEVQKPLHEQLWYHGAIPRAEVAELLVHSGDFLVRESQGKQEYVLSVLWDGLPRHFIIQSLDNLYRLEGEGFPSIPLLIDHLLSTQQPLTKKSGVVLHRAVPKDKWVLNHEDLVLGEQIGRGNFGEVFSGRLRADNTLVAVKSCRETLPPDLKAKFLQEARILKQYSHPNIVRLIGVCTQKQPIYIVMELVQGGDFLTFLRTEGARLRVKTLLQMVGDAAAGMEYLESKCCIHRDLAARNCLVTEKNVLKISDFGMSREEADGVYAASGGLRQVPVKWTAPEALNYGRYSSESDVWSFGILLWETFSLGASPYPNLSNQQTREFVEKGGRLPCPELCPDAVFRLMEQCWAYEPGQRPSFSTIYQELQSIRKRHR
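For SH2 binding enrichment of the phosphorylated peptide, bacterial display in this document: peptide library displayed on the E. coli surface as eCPX fusions, selected cells deep-sequenced, score is each peptide's frequency after selection divided by its frequency in the input.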
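For phosphorylation enrichment, bacterial display in this document: 11-residue human phosphosite peptides and single-mutation variants displayed on the E. coli surface, counted by deep sequencing, each peptide's frequency after selection divided by its frequency in the unselected input library; frequency after pTyr selection over input frequency; kinase dosed for 20-30% of maximal phosphorylation in three min.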

| Sequence | SH2 binding enrichment (Grb2 SH2) | SH2 binding enrichment (c-Src SH2) | SH2 binding enrichment (SHP2-C SH2) | phosphorylation enrichment (EPHB1) | phosphorylation enrichment (c-Abl (mouse)) | phosphorylation enrichment (FGFR1) | phosphorylation enrichment (Jak2) | phosphorylation enrichment (Fer (mouse)) | phosphorylation enrichment (Fyn) | phosphorylation enrichment (Hck) | phosphorylation enrichment (EPHB2) | phosphorylation enrichment (AncSZ) | phosphorylation enrichment (c-Src) | phosphorylation enrichment (FGFR3) | phosphorylation enrichment (MERTK) | phosphorylation enrichment (Fes) |
| --- | --- | --- | --- | --- | --- | --- | --- | --- | --- | --- | --- | --- | --- | --- | --- | --- |
| EASEQHLTKAS [NRCAM_Y739_Y739H] | 0.903 | 0.53 | 0.598 | 0.38 | 0.663 | 0.433 | 0.692 | 0.497 | 0.48 | 0.447 | 0.496 | 0.887 | 0.396 | 0.551 | 0.343 | 0.859 |
| SGIFQYNIAKF [FOXL2_Y83_I84N_YF] | 1.21 | 0.899 | 1.11 | 0.59 | 0.739 | 0.486 | 0.876 | 0.48 | 0.472 | 0.494 | 0.541 | 0.786 | 0.432 | 0.691 | 0.435 | 1.01 |
| IHSGIYFKPES [L2HGDH_Y102_YF] | 0.747 | 0.777 | 0.829 | 0.996 | 8.52 | 0.702 | 2.59 | 0.497 | 1.72 | 2.14 | 0.674 | 1.39 | 1.96 | 0.744 | 6.44 | 0.887 |
| DFFDLYGGQKF [PTPN11_Y66_E69Q_YF] | 0.883 | 0.735 | 0.541 | 0.464 | 0.866 | 0.609 | 0.931 | 0.82 | 7.17 | 8.96 | 0.662 | 1.13 | 6.89 | 0.715 | 0.567 | 0.94 |
| KAIMTYVPSFF [ACTN4_Y260_S262P_YF] | 0.97 | 0.97 | 0.836 | 0.61 | 0.647 | 0.445 | 0.678 | 0.438 | 0.499 | 0.497 | 0.531 | 0.72 | 0.46 | 0.542 | 0.487 | 0.838 |
| RSFLSYYTSHV [NEFL_Y442_P440L] | 1.12 | 1.66 | 1.63 | 0.998 | 0.606 | 0.575 | 1.71 | 0.491 | 0.692 | 0.421 | 0.761 | 0.996 | 0.561 | 0.834 | 1.44 | 0.876 |
| GSPAPYRRRKR [MBD1_Y403_P401A] | 0.594 | 0.42 | 0.413 | 0.466 | 0.497 | 0.596 | 0.632 | 0.505 | 0.502 | 0.498 | 0.499 | 0.617 | 0.618 | 0.426 | 0.608 | 0.545 |
| EQFELYCEMGS [CBL_Y371_YF] | 0.934 | 0.46 | 0.638 | 3.34 | 1.02 | 1.26 | 1.39 | 1 | 1.43 | 2.27 | 2.66 | 1.95 | 1.49 | 1.54 | 1.58 | 1.68 |
| IVAEFYDNLPH [DEGS1_Y284_A280V_YF] | 0.727 | 0.931 | 0.695 | 0.517 | 0.694 | 0.477 | 0.792 | 0.978 | 0.549 | 3.36 | 0.556 | 0.929 | 0.733 | 0.624 | 0.853 | 0.891 |
| DVFLKYLNFAT [PDE6B_Y212] | 1.82 | 0.935 | 1.5 | 0.855 | 1.46 | 0.535 | 1.56 | 0.509 | 0.557 | 0.544 | 0.44 | 1.23 | 0.597 | 0.826 | 0.647 | 1.29 |
| GEPLSHTRFSL [TFRC_Y20_Y20H] | 0.866 | 0.487 | 0.641 | 0.449 | 0.637 | 0.424 | 0.742 | 0.448 | 0.398 | 0.478 | 0.36 | 0.599 | 0.456 | 0.435 | 0.424 | 0.828 |
| IFLADCRIMEG [ALOX12B_Y318_Y318C_YF] | 0.886 | 0.461 | 0.62 | 0.803 | 0.894 | 0.654 | 1.2 | 0.594 | 0.579 | 0.662 | 0.664 | 1.33 | 0.525 | 1.02 | 0.5 | 1.48 |
| ESMLRYEVFGG [STOX1_Y607_YF] | 0.76 | 3.51 | 0.58 | 0.631 | 0.956 | 0.415 | 1.09 | 0.386 | 0.592 | 0.7 | 0.471 | 1.12 | 1.04 | 0.641 | 1.41 | 0.993 |
| LGKLTYPVGFW [NTHL1_Y177_I176T] | 0.904 | 0.478 | 1.02 | 1.12 | 1.32 | 1.31 | 2.04 | 1.32 | 1.14 | 1.23 | 1.65 | 2.42 | 1.35 | 1.48 | 0.889 | 2.06 |
| CTLLPYYSAPV [DGKE_Y269_R273P] | 0.71 | 1.53 | 0.54 | 2.04 | 1.65 | 1.43 | 1.54 | 2.17 | 0.792 | 1.14 | 2.29 | 2.02 | 1.25 | 1.3 | 4.17 | 1.71 |
| SVEVPYEPPEV [TP53_Y220_V217E] | 0.977 | 0.591 | 0.797 | 0.579 | 1.08 | 0.622 | 1.41 | 0.572 | 0.603 | 0.596 | 0.675 | 1.44 | 0.549 | 0.907 | 0.564 | 1.4 |
| WPLKWYVPECI [ZAP70_Y506_A507V] | 0.841 | 0.499 | 0.488 | 0.688 | 0.757 | 0.496 | 1.02 | 0.44 | 0.428 | 0.572 | 0.618 | 1.06 | 0.387 | 0.804 | 0.382 | 1.18 |

The next lines start with results.

| SH2 binding enrichment (Grb2 SH2) | SH2 binding enrichment (c-Src SH2) | SH2 binding enrichment (SHP2-C SH2) | Sequence | phosphorylation enrichment (EPHB1) | phosphorylation enrichment (c-Abl (mouse)) | phosphorylation enrichment (FGFR1) | phosphorylation enrichment (Jak2) | phosphorylation enrichment (Fer (mouse)) | phosphorylation enrichment (Fyn) | phosphorylation enrichment (Hck) | phosphorylation enrichment (EPHB2) | phosphorylation enrichment (AncSZ) | phosphorylation enrichment (c-Src) | phosphorylation enrichment (FGFR3) | phosphorylation enrichment (MERTK) | phosphorylation enrichment (Fes) |
| --- | --- | --- | --- | --- | --- | --- | --- | --- | --- | --- | --- | --- | --- | --- | --- | --- |
| 1.25 | 6.38 | 0.936 | LRNRVYEVPVE [SLC26A3_Y756] | 1.12 | 1.52 | 0.584 | 2.04 | 4.25 | 1.17 | 1.37 | 1.54 | 1.65 | 1.18 | 0.757 | 3.3 | 1.25 |
| 1.35 | 1.42 | 1.47 | VEDQYYCVDCY [FHL1_Y208] | 1.02 | 1.1 | 12 | 1.86 | 1.11 | 2.34 | 1.46 | 0.754 | 5.02 | 2.77 | 10.3 | 3.19 | 1.48 |
| 2.21 | 1.48 | 1.32 | SGVSFYINLCQ [IGF2R_Y2025_N2020S_YF] | 0.806 | 1.04 | 0.787 | 1.61 | 0.529 | 0.361 | 0.481 | 0.695 | 1.5 | 0.522 | 1.19 | 0.686 | 1.46 |
| 0.698 | 0.482 | 0.381 | RGKDSYETSQL [SPP1_Y225] | 0.552 | 0.313 | 0.632 | 0.643 | 0.594 | 0.484 | 0.412 | 0.529 | 0.681 | 0.449 | 0.697 | 0.5 | 0.913 |
| 1.01 | 0.641 | 0.919 | PELINCHQHNS [BTK_Y361_Y361C] | 0.676 | 0.876 | 0.682 | 0.971 | 0.56 | 0.297 | 0.544 | 0.9 | 0.938 | 0.69 | 0.7 | 0.712 | 1.04 |
| 0.848 | 0.638 | 0.647 | TEAEPYFCSLR [NPHS1_Y1138_R1140C_YF] | 0.565 | 0.814 | 0.551 | 1.51 | 0.466 | 0.544 | 0.576 | 0.615 | 1.11 | 0.932 | 0.698 | 0.48 | 1.22 |
| 0.922 | 0.658 | 1.01 | AFLGEYIPTVF [RAC2_Y32_P29L] | 0.733 | 1.1 | 0.826 | 1.49 | 0.568 | 0.593 | 0.516 | 0.499 | 1.31 | 0.664 | 0.967 | 0.638 | 1.43 |
| 0.832 | 7 | 0.617 | AADGRYEVLFL [SEMA3F_Y478] | 0.731 | 0.624 | 0.62 | 1.02 | 2.97 | 0.447 | 0.792 | 0.683 | 1.07 | 0.489 | 0.822 | 0.749 | 1.01 |
| 0.726 | 0.537 | 0.811 | CPFNLYAAQLS [HGD_Y40_E42A_YF] | 1.79 | 0.874 | 0.573 | 1.02 | 0.76 | 0.648 | 1.09 | 1.24 | 1.2 | 0.961 | 0.816 | 1.7 | 1.29 |
| 1.58 | 1.1 | 1.09 | LLREWYLPDPY [SIX3_Y225_Q227P] | 0.541 | 0.969 | 0.636 | 1.04 | 0.409 | 0.477 | 0.484 | 0.473 | 0.888 | 0.49 | 0.816 | 0.351 | 1.14 |
| 0.67 | 0.667 | 0.582 | KRISCYEASYQ [PFKFB3_Y194] | 0.522 | 0.74 | 0.447 | 0.749 | 0.494 | 0.452 | 0.529 | 0.484 | 0.896 | 0.467 | 0.656 | 0.493 | 0.947 |
| 0.949 | 0.585 | 0.723 | EHTTLYSDNST [KANSL1_Y223_N225D] | 0.45 | 0.512 | 0.475 | 0.654 | 0.661 | 0.407 | 0.561 | 0.433 | 0.697 | 0.497 | 0.591 | 0.443 | 0.801 |
| 0.705 | 0.578 | 0.695 | LYVDVYGPSVP [NUBPL_Y109_D105Y] | 3.63 | 0.902 | 2.8 | 0.977 | 2.21 | 2.02 | 2.85 | 1.09 | 1.48 | 2.15 | 2.02 | 2.27 | 1.32 |
| 0.84 | 0.614 | 0.576 | SDVWSYGVTMW [ZAP70_Y525] | 0.688 | 0.979 | 0.557 | 1.26 | 0.63 | 0.477 | 0.695 | 0.695 | 1.15 | 0.54 | 0.847 | 0.502 | 1.39 |
| 1.05 | 0.485 | 0.707 | AQVDTYCRHNY [HLA-DRB1_Y107_A103Q] | 0.536 | 0.693 | 0.512 | 0.764 | 0.517 | 0.549 | 0.523 | 0.47 | 0.752 | 0.369 | 0.679 | 0.447 | 0.866 |
| 1.51 | 2.22 | 4.15 | LKLIQYHLIQQ [AKAP4_Y554_T557I] | 0.95 | 1.16 | 0.687 | 1.4 | 0.544 | 0.553 | 0.659 | 0.737 | 1.2 | 0.582 | 0.924 | 0.774 | 1.67 |
